From US20230357704A1 (Alliance for Sustainable Energy, LLC, priority 2022, published 2023)

Assays:
P. renovo [1] = assay: Formate utilization, HPLC analysis of culture supernatant; assay type: cell-based, Picochlorum renovo; conditions: for formate consumption: 10 mM sodium formate, evaporative losses taken into account; for formate consumed from the culture media: 25 mM formate, 2% CO2, after 85 hours of cultivation
Experimental: Six μL of filtered cell-free supernatant was used for injection into the Bio-Rad HPX-87H (300×7.8 mm) ion exchange column. Elution of the organic acid was carried out with 0.01 N sulfuric acid at a flow rate of 0.6 mL per min. The column temperature was maintained at 55° C.

P. renovo [2] = assay: Growth of FDH-expressing P. renovo in media supplemented with formate; assay type: cell-based, Picochlorum renovo; conditions: for growth in media supplemented with formate: 25 mM formate, 2% CO2, pH 6.0; for growth on sodium formate: up to 75 mM sodium formate, 2% CO2, pH=6 Bis-Tris, 5 mM NH4Cl
Experimental: Cultures were mixed via shaking (170 rpm) at 33° C., 2% CO2, and 125 uE cool white LED lighting.
FDH variants utilized were mutated from the Pseudomonas sp. 101 FDH, specifically NAD+ utilizing variant (A198G) and NADP+ utilizing variant (A198G/D221Q/C255A/H379K/S380V). FDH transformation vectors were prepared by Twist Bioscience, cloning a ribosomal binding site ([…]) and codon optimized FDH downstream of the ptxD selectable marker in our previously described chloroplast transformation vector. P. renovo transformation was carried out as described previously, with the exception that Critter Technology binding and precipitation buffers were used according to the manufacturers recommendations to bind DNA (plasmid prepared by Twist Bioscience) onto the gold microcarriers for biolistic transformation.

B1: NAD+-utilizing FDH variant: Pseudomonas sp. 101 formate dehydrogenase mutant A198G, SEQ ID NO: 30, expressed in P. renovo chloroplast (protein)
chain: MAKVLCVLYDDPVDGYPKTYARDDLPKIDHYPGGQTLPTPKAIDFTPGQLLGSVSGELGLRKYLESNGHTLVVTSDKDGPDSVFERELVDADVVISQPFWPAYLTPERIAKAKNLKLALTAGIGSDHVDLQSAIDRNVTVAEVTYCNSISVAEHVVMMILSLVRNYLPSHEWARKGGWNIADCVSHAYDLEAMHVGTVGAGRIGLAVLRRLAPFDVHLHYTQRHRLPESVEKELNLTWHATREDMYPVCDVVTLNAPLHPETEHMINDETLKLFKRGAYIVNTARGKLCDRDAVARALESGRLAGYAGDVWFPQPAPKDHPWRTMPYNGMTPHISGTTLTAQARYAAGTREILECFFEGRPIRDEYLIVQGGALAGTGAKVYSKGNATGGSEEAAKFKKAV
modifications: Pseudomonas sp. 101
P. renovo [1]; 5 mM formate added (initial 6.2 mM), ambient CO2 (0.04%), after 312 hours, HPLC
  formate concentration in culture: 1.7 mM
P. renovo [1]; 5 mM formate, ambient CO2 (0.04%), 312 hours
  utilization of the added formate: 74+/−2%
P. renovo [1]; 2% CO2, at 85 hours
  formate consumption: 77±2%
P. renovo [1]; 2% CO2, at 132 hours
  formate consumption: 88±1%
P. renovo [1]
  formate consumed from the culture media: 48±1%
P. renovo [2]; 5 mM formate, ambient CO2 (0.04%), versus no formate supplementation
  growth when supplemented with formate: enhanced growth
P. renovo [2]; 5 mM formate, ambient CO2 (0.04%), versus unsupplemented wild-type
  optical density relative to wild-type: > 3.8 ×
P. renovo [2]; 10 mM formate compared to 25 mM formate, 2% CO2
  culture density: higher culture density
P. renovo [2]
  growth in media supplemented with formate: Growth in media supplemented with 25 mM formate was observed

B2: SV26: Candida boidinii FDH (C23S), SEQ ID NO: 14 (protein, listed as Candida boidinii)
chain: MKIVLVLYDAGKHAADEEKLYGSTENKLGIANWLKDQGHELITTSDKEGETSELDKHIPDADIIITTPFHPAYITKERLDKAKNLKLVVVAGVGSDHIDLDYINQTGKKISVLEVTGSNVVSVAEHVVMTMLVLVRNFVPAHEQIINHDWEVAAIAKDAYDIEGKTIATIGAGRIGYRVLERLLPFNPKELLYYDYQALPKEAEEKVGARRVENIEELVAQADIVTVNAPLHAGTKGLINKELLSKFKKGAWLVNTARGAICVAEDVAAALESGQLRGYGGDVWFPQPAPKDHPWRDMRNKYGAGNAMTPHYSGTTLDAQTRYAEGTKNILESFFTGKFDYRPQDIILLNGEYVTKAYGKHDKK
P. renovo [2]
  growth on sodium formate: able to grow

B3: SV27: Candida boidinii FDH (C23S/C262A), SEQ ID NO: 16 (protein, listed as Candida boidinii)
chain: MKIVLVLYDAGKHAADEEKLYGSTENKLGIANWLKDQGHELITTSDKEGETSELDKHIPDADIIITTPFHPAYITKERLDKAKNLKLVVVAGVGSDHIDLDYINQTGKKISVLEVTGSNVVSVAEHVVMTMLVLVRNFVPAHEQIINHDWEVAAIAKDAYDIEGKTIATIGAGRIGYRVLERLLPFNPKELLYYDYQALPKEAEEKVGARRVENIEELVAQADIVTVNAPLHAGTKGLINKELLSKFKKGAWLVNTARGAIAVAEDVAAALESGQLRGYGGDVWFPQPAPKDHPWRDMRNKYGAGNAMTPHYSGTTLDAQTRYAEGTKNILESFFTGKFDYRPQDIILLNGEYVTKAYGKHDKK
P. renovo [2]
  growth on sodium formate: able to grow

B4: NADP+-utilizing FDH variant: Pseudomonas sp. 101 formate dehydrogenase mutant A198G/D221Q/C255A/H379K/S380V, SEQ ID NO: 32, expressed in P. renovo chloroplast (protein)
chain: MSDPTLAQPHLVEVHTTLETVVTTHNHNHRPSINASGEKKKIVGVFYKGNEYAKLNPNFVGCVEGALGIREWLESQGHQYIVTDDKEGPDSELEKHIPDAHVIISTPFHPAYVTAERIKKAQKLELLLTAGIGSDHVDLKAAAAAGLTVAEVTGSNVVSVAEDELMRILILMRNFLPGYHQAVKGEWNVAGIAHRAYDLEGKTVGTVGAGRIGKLLLQRLKPFNCNLLYFDRLRIDPELEKEIGAKFEEDLDAMLPKCDVIVINTPLTEQTRGLFDKNRIAKCKKGVLIVNNARGAIADTQAIADACSSGHVAGYSGDVWDPQPAPKDHPWRYMPNHAMTPHISGTTIDAQLRYAAGVKDMLDRHFKGEDFPEQNYIVKEGQLASQYR
modifications: Pseudomonas sp. 101
P. renovo [1]
  formate consumed from the culture media: no formate utilization
P. renovo [2]
  growth in media supplemented with formate: no growth
P. renovo [2]; listed as NADP+ utilizing FDH variant
  growth in media supplemented with formate: did not grow
